First the molecules themselves.
B1: glmS ribozyme (parent)
chain: AUAAAAGCGCCAGAACUACAGAAAUGUAGUUGACGAGGAGGAGGUUUAUCGAAUUUUCGGCGGAUGCCUCCAAA

± gives the standard error. This sample holds only a part of the variants without activity. Where only a bound is given, the exact number is not on record here.

The variants in the first series derive from B1. Put plainly: self-cleavage kobs at 2500 uM GlcN6P; higher = faster cleavage; RNA array. As to conditions: with glucosamine-6-phosphate. The gist of the method:
(§1)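 In situ transcription by E. coli RNA polymerase produced barcoded ribozyme variants on sequenced MiSeq chips, and a hybridised Cy3 probe tracked them at 37 °C. Glucosamine-6-phosphate was flowed in at 40 μM to 10 mM in HEPES/KCl/Mg(OAc)2 buffer. kcat and KM were taken from weighted Michaelis–Menten fits of kobs values from exponential decay fits.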
AUAAAUGUGCCAGAACUACAGAAAUGUAGUUGACGAGGAGGAGGUUUAUCGUAUUUUCGGCGGAUGUCUCUAAA [A6U C8U A52U C67U C71U]: the “self-cleavage kobs at 2500 uM GlcN6P” value is less than 1e-05 s⁻¹. The same measure, in the same setting: under AUAAAAGCGCCAGAACUACAGAAAUGUAGUUGACGAGGAGGAGGUUUACCGAAUUUGCGGCGGAUGCCUCCAAA [U49C U57G] stands less than 1e-05 s⁻¹; under AUAAAAGUGCUAGAACUACAGAAAUGUAGUUGACGAGGCGGAGGUUUAUCAAAUUUUCGGCCGAUGCCUCCAAA [C8U C11U A39C G51A G62C], less than 1e-05 s⁻¹; under AUAAAAGCGCUAGAACUACAGAAAUGUAGUUGAAGAGGAGGAGAUUUAUCGAAUUUUCGGCGGAUGCCUCCAAA [C11U C34A G44A], less than 1e-05 s⁻¹.

Take AUAAAAGCGCCAGCACUACAGAAAUGUAGUGGACGAGGGGGAGGUUUAUCGAAUUUUCGGCGGAUUCCUCCAAA [A14C U31G A39G G66U]: the “self-cleavage kobs at 2500 uM GlcN6P” value amounted to 0.00126 ± 0.00036 s⁻¹. Still for that read-out and setting: under AUAAAAACUCCAGAACUACAGAAAUGUAGUUGACGAGGAGGAGGUUUAUCGAAUUUUCGGCGGAUGCCUCCAAA [G7A G9U] stands less than 1e-05 s⁻¹; under AUAAAAGCUCCAGACCUACAGAAAUGUAGUUCACGAGGAGGAGGUUUAUCGAAUUUUCGGCGGAUGCCUCCAAA [G9U A15C G32C], less than 1e-05 s⁻¹. Take AUAAAAGCGCCAGAACUACAGAAAUGUAGUUGACGAGGAGGAGGUUUAACAAAUUUUCGGCUGAUGCCUCCAAA [U49A G51A G62U]: the “self-cleavage kobs at 2500 uM GlcN6P” value is less than 1e-05 s⁻¹. Same read-out and setting: in the case of AUAAAAGCGCUAGAACUACAGAAAUGUAGAUGACGACGAGGAGGUUUAACGAAUUUUCGGCGGAUGCCUCCAAA [C11U U30A G37C U49A] it was less than 1e-05 s⁻¹; in that of AUAAAAGCGCUAGAACUACAGAAAUGUAUUUGACGAGGAGGAGGUUUAUCGAAUUUUCGGCGGAUGGCUCCAAA [C11U G29U C67G], 0.000197 ± 6.6e-05 s⁻¹; in that of AUAAAAGCGCCAGAACUACAGAAAUGUAGUUGACGAGGAGGAGGCUUAUCGAAUUUUCGGCGGAUUCCUGCAAA [U45C G66U C70G], 7.12e-05 ± 3.1e-05 s⁻¹. On the same count and under the same terms, in the case of AUAAAAGUGCCAGAACUACAGAAAUGUAGUUGACGAUGAGGAGGUUUAUCGAAUUUUCGGCUGUUGCCUCCAAA [C8U G37U G62U A64U] it was less than 1e-05 s⁻¹.

With AUAAAAGCGCCAGAACUACAGAAAUGUAGGUGACGAGAAGGAGGUGUAUCGAAUUUUCGGCGGAUGCCUCCAAA [U30G G38A U46G], the “self-cleavage kobs at 2500 uM GlcN6P” value was less than 1e-05 s⁻¹.

As for AUAAAAGCGCCAGAACUACAGAAAUGUAGUUGACGAGGAGGUGGUUUGUCGAAUUUUCGGAGGAUGCCUCCAAA [A42U A48G C61A], the “self-cleavage kobs at 2500 uM GlcN6P” value was less than 1e-05 s⁻¹. Same read-out and setting: under AUAAAAGCGCCAGAACUAAAGAAAUGUAGUUGAUGAGGAGGAGGAUUUUCGAAUUUUCGGCGGAUGCCUCCAAA [C19A C34U U45A A48U] stands less than 1e-05 s⁻¹; under AUAAAAGCGCCAGAACUACAGAAAUGUAGUUGACCAGGAGGUGGUUUAUCGAAUAUUGGGCGGAUGCCUCCAAA [G35C A42U U55A C58G], less than 1e-05 s⁻¹; under AUAAAAGCACCAGAACUACAGAAAUGUAGUUGACGAGGAGGAGGUUUAUCGAAUUUUCGGAGGUUGACUCCAAA [G9A C61A A64U C67A], less than 1e-05 s⁻¹. As to AUAAAAGCGCCAGAACUACAGAAAUGUAGUUUACGAGGAGGAGGUCUAUCGAAUUUUCGGCGGAUGCCUCCAAA [G32U U46C], the “self-cleavage kobs at 2500 uM GlcN6P” value was 3.86e-05 ± 1.4e-05 s⁻¹.

Regarding AUAAAAGCGCCAGAACUACAGAAAUGUAGUUUACGAGGUGGAGGUUUAUAGAAUUUUCGGCGGAUGCCUCCAAA [G32U A39U C50A], the “self-cleavage kobs at 2500 uM GlcN6P” value was less than 1e-05 s⁻¹.

Consider AUAAAAGCGCCAGAACUACAGAAAUGUAGUUGAGGAGGAGGAGGUUUAUCGAAUUUGCGGCGGAUGCCUGCAAA [C34G U57G C70G], for which the “self-cleavage kobs at 2500 uM GlcN6P” value worked out at 0.00021 ± 4.8e-05 s⁻¹. Regarding AUAAAAGCGCGAGAACUACAGAAAUGUAGUUGACGAUGAGGAGGUUUAUCGACUUUUCGGCGGAUGCCUCCAAA [C11G G37U A53C], the “self-cleavage kobs at 2500 uM GlcN6P” value is less than 1e-05 s⁻¹. In the case of AUAAAAGCGCCCGAACUACAGAAAUGUAGUUGACGAGGAGGAGGUUUAUGGAAUUUUCGGCGGAUGCCUACAAA [A12C C50G C70A], the “self-cleavage kobs at 2500 uM GlcN6P” value amounted to 0.000246 ± 5.7e-05 s⁻¹. Regarding AUAAAAGCGGCAGUACUACAGAAAUGUACUUGACGAGGAGGAGGUUUAACGGAUUUUCGGCGGAUGGCUCCAAA [C10G A14U G29C U49A A52G C67G], the “self-cleavage kobs at 2500 uM GlcN6P” value came out at 7.89e-05 ± 2.3e-05 s⁻¹. In the case of AUAAAAGCGCCAGAACUACAGAAAUGUAACUGACGAGGAGGAGGUUUUUCGAAUUUUUGGCGGAUGCCUCCAAA [G29A U30C A48U C58U], the “self-cleavage kobs at 2500 uM GlcN6P” value was less than 1e-05 s⁻¹. Take AUAAAAGCGCCAGAACUACAGAAAUGUAGUUUACGAGGAGCAGGUUUAUCGAAUUUUCAGCGGAUGCCUCCAAA [G32U G41C G59A]: the “self-cleavage kobs at 2500 uM GlcN6P” value is less than 1e-05 s⁻¹.

In the case of AUAAAAGCGCCAGAAAUACAGAAAUGUAGUUGACGAUGAGAAGGUUUAUCGAAUUUUCGGCGGAUGCCUCCAAA [C16A G37U G41A], the “self-cleavage kobs at 2500 uM GlcN6P” value was less than 1e-05 s⁻¹. Take AUAAAAGCGCCAGAACUACAGAAAUGUAGUUCCCGAGGAGGAGGUUUAGCGAAUUUUCGGCGGAUGCCUCCAAA [G32C A33C U49G]: the “self-cleavage kobs at 2500 uM GlcN6P” value was less than 1e-05 s⁻¹. As to AUAAAAGCGCCAGAACUACAGAAAUGUAGUUGACGAGGAGGGAGUUUAUCGAAUUUUCGGCUGAUGCCUCCAAA [A42G G43A G62U], the “self-cleavage kobs at 2500 uM GlcN6P” value was less than 1e-05 s⁻¹. Regarding AUAAAACCGCUAGAACUACAGAAAUGUAGUUGAGGAGGAGGAGGUUUAGCGAAUUUUCGGCGGAUGCCUCCAAA [G7C C11U C34G U49G], the “self-cleavage kobs at 2500 uM GlcN6P” value is less than 1e-05 s⁻¹.

AUAAAAGAGCCAGAACUACAGAAAUGUAGUUGCCGAGGAGGGGGUUUAUCGAAUUUUCGGCGGAGGCCUCCAAA [C8A A33C A42G U65G]: the “self-cleavage kobs at 2500 uM GlcN6P” value was less than 1e-05 s⁻¹. The same measure, in the same setting: under AUAAAAUCACCAGAACUACAGAAAUGUAGUUGACGAGGAGGAGGUUUAUCGAAUUUUCGGCGGAUGACUCCAAA [G7U G9A C67A] stands less than 1e-05 s⁻¹; under AUAAAAGCGCUAGAACUACAGAAAUGUAGUUGACGAGGAGGAGGUAUAUCGAAUUUUCGGCAGAUGCCUCCAAA [C11U U46A G62A], less than 1e-05 s⁻¹; under AUAAAAGCGCCAUAUCUACAGAAAUGUAGUUGACGAGGAGGAGGUUUAUCGAAUUUUCGGCGGAUGCCUCUAAA [G13U A15U C71U], 5.99e-05 ± 2.5e-05 s⁻¹. In the case of AUAAAAGCGUCAGCUCUACAGAAAUGUAGUUGACGAGGAGAAGGUUUAUCGAAUUUUCGGCGGAUGCCUCCAAA [C10U A14C A15U G41A], the “self-cleavage kobs at 2500 uM GlcN6P” value is less than 1e-05 s⁻¹. Turning to AUAAAAGCGCCAGAUCUACAGAAAUGUAGUUUACGGGGAGGAGGUUUAUCGAAUUUUCGGCGGGUGCUUCCAAA [A15U G32U A36G A64G C68U], the “self-cleavage kobs at 2500 uM GlcN6P” value is less than 1e-05 s⁻¹.

Variants of B1 are the subject of another series. In words: self-cleavage kobs at 10000 uM GlcN6P; higher = faster cleavage; RNA array. As to conditions: with glucosamine-6-phosphate. The procedure, abridged: as §1
On to AUAAAAGCGCCAGAACUACAGAAAUGUAGUUGACGAGGAGGAGGUUUACCGAAUUUGCGGCGGAUGCCUCCAAA [U49C U57G], for which the “self-cleavage kobs at 10000 uM GlcN6P” value was less than 1e-05 s⁻¹. Still for that read-out and setting: under AUAAAAGCGCCAGAACUACAGAAAUGUAGUUUACGAGGAGGAGGUCUAUCGAAUUUUCGGCGGAUGCCUCCAAA [G32U U46C] stands 0.000136 ± 1.8e-05 s⁻¹.

The values are drawn from the supplement of paper PMC7125110.
